Results reported in patent US10239925B2, “Peptides and combination of peptides for use in immunotherapy against ovarian cancer and other cancers” (IMMATICS BIOTECHNOLOGIES GMBH, priority 2015, dated 2019).

Each substance was assayed against HLA-A*02:01 (Homo sapiens, UniProt P04439, D140Y/D185E/D98H/E176V/E277Q/G131W/G231S/I119V/I121R/I166T/I218V/L300P/L318F/N151K/N90K/P208A/P217A/Q86G/Q94H/R138H/R169H/T345S) (assay: MHC binding assay (UV-ligand exchange, anti-β2m ELISA, peptide exchange yield)). Conditions: binding to HLA-A*02:01.
Description: Candidate peptides for T cell based therapies according to the present invention were further tested for their MHC binding capacity (affinity). The individual peptide-MHC complexes were produced by UV-ligand exchange, where a UV-sensitive peptide is cleaved upon UV-irradiation, and exchanged with the peptide of interest as analyzed. Only peptide candidates that can effectively bind and stabilize the peptide-receptive MHC molecules prevent dissociation of the MHC complexes. To determine the yield of the exchange reaction, an ELISA was performed based on the detection of the light chain (β2m) of stabilized MHC complexes. The assay was performed as generally described in Rodenko et al. (Rodenko et al., 2006).
96 well MAXISorp plates (NUNC) were coated over night with 2 ug/ml streptavidin in PBS at room temperature, washed 4× and blocked for 1h at 37° C. in 2% BSA containing blocking buffer. […] Peptide-MHC monomers of the UV-exchange reaction were diluted 100 fold in blocking buffer. Samples were incubated for 1 h at 37° C., washed four times, incubated with 2 ug/ml HRP conjugated anti-β2m for 1h at 37° C., washed again and detected with TMB solution that is stopped with […]. Absorption was measured at 450 nm. Candidate peptides that show a high exchange yield (preferably higher than 50%, most preferred higher than 75%) are generally preferred for a generation and production of antibodies or fragments thereof, and/or T cell receptors or fragments thereof, as they show sufficient avidity to the MHC molecules and prevent dissociation of the MHC complexes.

Peptide exchange (MHC class I binding score, peptide exchange yield)	Substance
“+++” (>50 = +++)	488 (FLAEDPKVTL; listed as Homo sapiens) [compound 488]
“+++” (>50 = +++)	546 (VMIAGKVAVV; listed as Homo sapiens) [compound 546]
“+++” (>50 = +++)	243 (LLLNELPSV; listed as Homo sapiens) [compound 243]
“+++” (>50 = +++)	437 (SMAPGLVIQAV; listed as Homo sapiens) [compound 437]
“+++” (>50 = +++)	334 (TLTKVLVAL; listed as Homo sapiens) [compound 334]
“+++” (>50 = +++)	366 (RLLDMGETDLML; listed as Homo sapiens) [compound 366]
“+++” (>50 = +++)	170 (RLQETLSAA; listed as Homo sapiens) [compound 170]
“++++” (>75% = ++++)	137 (TLVLTLPTV; listed as Homo sapiens) [compound 137]
“++++” (>75% = ++++)	339 (GLWEIENNPTVKA; listed as Homo sapiens) [compound 339]
“+++” (>50 = +++)	474 (YLDPALELGPRNV; listed as Homo sapiens) [compound 474]
“+++” (>50 = +++)	174 (ALAQYLITA; listed as Homo sapiens) [compound 174]
“+++” (>50 = +++)	543 (GLLPTPITQQASL; listed as Homo sapiens) [compound 543]
“+++” (>50 = +++)	545 (LLADLLHNV; listed as Homo sapiens) [compound 545]
“+++” (>50 = +++)	132 (LLVEQPPLAGV; listed as Homo sapiens) [compound 132]
“+” (>10% = +)	116 (YHIDEEVGF; listed as Homo sapiens) [compound 116]
“+++” (>50 = +++)	316 (ILLERLWYV; listed as Homo sapiens) [compound 316]
“+++” (>50 = +++)	593 (GLPRFGIEMV; listed as Homo sapiens) [compound 593]
“+++” (>50 = +++)	256 (FLPPEHTIVYI; listed as Homo sapiens) [compound 256]
“+++” (>50 = +++)	28 (QLLDETSAITL; listed as Homo sapiens) [compound 28]
“++” (>20% = ++)	398 (KLLEEDGTIITL; listed as Homo sapiens) [compound 398]
“++” (>20% = ++)	353 (YLFEMDSSL; listed as Homo sapiens) [compound 353]

Peptide exchange (MHC class I binding score, peptide exchange yield)	Substance
“++” (>20% = ++)	210 (LLLNAVLTV; listed as Homo sapiens) [compound 210]
“++++” (>75% = ++++)	310 (FLVDTPLARA; listed as Homo sapiens) [compound 310]
“+++” (>50 = +++)	567 (SLLPLDDIVRV; listed as Homo sapiens) [compound 567]
“+++” (>50 = +++)	192 (KMLDGASFTL; listed as Homo sapiens) [compound 192]
“+++” (>50 = +++)	71 (GILARIASV; listed as Homo sapiens) [compound 71]
“+++” (>50 = +++)	614 (LLLPDQPPYHL; listed as Homo sapiens) [compound 614]
“+++” (>50 = +++)	555 (YVLEGLKSV; listed as Homo sapiens) [compound 555]
“+++” (>50 = +++)	401 (ILLDDTGLAYI; listed as Homo sapiens) [compound 401]
“++” (>20% = ++)	565 (ALQETPTSV; listed as Homo sapiens) [compound 565]
“+++” (>50 = +++)	344 (YLQDQHLLLTV; listed as Homo sapiens) [compound 344]
“+++” (>50 = +++)	317 (SLAALVVHV; listed as Homo sapiens) [compound 317]
“++” (>20% = ++)	381 (FIDEAYVEV; listed as Homo sapiens) [compound 381]
“++” (>20% = ++)	459 (ALITEVVRL; listed as Homo sapiens) [compound 459]
“+++” (>50 = +++)	67 (TLLAEALVTV; listed as Homo sapiens) [compound 67]
“+++” (>50 = +++)	236 (GLLEAKVSL; listed as Homo sapiens) [compound 236]
“+++” (>50 = +++)	560 (ALWDIETGQQTTT; listed as Homo sapiens) [compound 560]
“++” (>20% = ++)	590 (SLIEKLWQT; listed as Homo sapiens) [compound 590]
“+++” (>50 = +++)	130 (FLWNGEDSALL; listed as Homo sapiens) [compound 130]
“+++” (>50 = +++)	183 (FGLDLVTEL; listed as Homo sapiens) [compound 183]
“+++” (>50 = +++)	335 (YSLSSVVTV; listed as Homo sapiens) [compound 335]
“+++” (>50 = +++)	135 (ALSEVDFQL; listed as Homo sapiens) [compound 135]

Peptide exchange (MHC class I binding score, peptide exchange yield)	Substance
“+++” (>50 = +++)	66 (FLDENIGGVAV; listed as Homo sapiens) [compound 66]
“++++” (>75% = ++++)	126 (VLAYFLPEA; listed as Homo sapiens) [compound 126]
“+++” (>50 = +++)	525 (VLLEAGEGLVTI; listed as Homo sapiens) [compound 525]
“+++” (>50 = +++)	529 (LLADELITV; listed as Homo sapiens) [compound 529]
“++” (>20% = ++)	24 (SLSDGLEEV; listed as Homo sapiens) [compound 24]
“+++” (>50 = +++)	635 (SLDSTLHAV; listed as Homo sapiens) [compound 635]
“+++” (>50 = +++)	144 (YIMEPSIFNTL; listed as Homo sapiens) [compound 144]
“++” (>20% = ++)	185 (FLIDDKGYTL; listed as Homo sapiens) [compound 185]
“+++” (>50 = +++)	475 (LLLNEEALAQI; listed as Homo sapiens) [compound 475]
“+++” (>50 = +++)	139 (SVMEVNSGIYRV; listed as Homo sapiens) [compound 139]
“+++” (>50 = +++)	391 (YVYPQRLNFV; listed as Homo sapiens) [compound 391]
“+++” (>50 = +++)	364 (LLQNEQFEL; listed as Homo sapiens) [compound 364]
“++++” (>75% = ++++)	621 (VLMDRLPSLL; listed as Homo sapiens) [compound 621]
“++” (>20% = ++)	148 (ALNPEIVSV; listed as Homo sapiens) [compound 148]
“+++” (>50 = +++)	561 (YLQLTQSEL; listed as Homo sapiens) [compound 561]
“++++” (>75% = ++++)	237 (ALLEASGTLLL; listed as Homo sapiens) [compound 237]
“+++” (>50 = +++)	20 (RMIEYFIDV; listed as Homo sapiens) [compound 20]
“+++” (>50 = +++)	1 (SLMEPPAVLLL; listed as Homo sapiens) [compound 1]
“++++” (>75% = ++++)	235 (YLNDLHEVLL; listed as Homo sapiens) [compound 235]
